According to the RNAGym collection of RNA variant scans (doi:10.1093/nar/gkz1192):

B1: CPEB3 Ribozyme (parent)
chain: UAACAGGGGGCCACAGCAGAAGCGUUCACGUCGCAGCCCCUGUCAGAUUCUGGUGAAUCUGCGAAUUCUGCUGUAUAUCUC

Variants of: B1
Assay: self-cleavage, relative activity (ratio to wild type); higher = more cleavage; in vitro, sequencing
Summary of the method: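 For each CPEB3 ribozyme variant, relative activity is its cleaved/total read fraction divided by the unmutated ribozyme's. Barcoded error-prone PCR libraries were transcribed by T7 RNA polymerase (5 hours, 37°C) and held in DNase I for 15 min before an EDTA stop, with cleavage occurring throughout. Template-switching reverse transcription and Illumina sequencing were used to read the RNAs. A 5-read minimum applied, and results are the mean of three batches.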

Variant | self-cleavage
A18G U58A | 0.21
A18G U58G | 0.28
A18G U58C | 0.28
G19C C68U | 0.63
A18U U49C | 0.22
A18U U49A | 0.38
A18U A28C | 0.15
A18U A28G | 0.26
A18U A28U | 0.29
A18U A77U | 0.48
A18U A77G | 0.51
G19A A35U | 0.17
G19C U74C | 0.19
G19A U54C | 0.23
G19A U51A | 0.31
G19A U51C | 0.32
G19C U48A | 0.18
G19C U48C | 0.35
A18U C23G | 0.22
A18U C23A | 0.1
A18U C23U | 0.23
G19A A28G | 0.2
G19A U60G | 0.4
G19C G22A | 0.22

Variant | self-cleavage
G19C A35C | 0.2
G19C A35U | 0.22
A18U C62U | 0.33
A18U C62A | 0.28
A18U C62G | 0.27
A18U C68A | 0.2
A18G G70C | 0.13
A18G G70A | 0.37
G19C A28U | 0.07
A18G U26A | 0.48
A18G U26C | 0.33
A18U U74C | 0.61
A18U U74A | 0.62
G19A U25C | 0.13
G19A U25A | 0.28
A18G G24C | 0.28
A18G G24A | 0.15
A18U G46U | 0.2
A18G U72G | 0.29
A18G U72A | 0.35
A18G U72C | 0.68
G19C A75U | 0.29
A18U C81G | 0.27
A18U C81U | 0.51

Variant | self-cleavage
A18U C81A | 0.69
G19A U67C | 0.17
G19A U67A | 0.07
A18G U60C | 0.28
A18G U60G | 0.14
A18G U60A | 0.38
G19A G36C | 0.14
A18G U25A | 0.38
A18G U25G | 0.17
A18G U25C | 0.26
G19C U78C | 0.71
G19A U43A | 0.36
A18U U43G | 0.14
A18U U43A | 0.64
A18U U43C | 0.26
A18U A75U | 0.5
A18U A75G | 0.38
A18G U43G | 0.36
A18G U43C | 0.35
A18G U43A | 0.72
A18G G46A | 0.35
A18G G46U | 0.16
A18U C50A | 0.4
A18U C50U | 0.42

Variant | self-cleavage
A18U A56C | 0.21
A18U A56G | 0.3
A18U A56U | 0.31
A18G C59A | 0.23
A18G C59G | 0.25
A18G C59U | 0.43
A18U G52A | 0.39
A18U G52U | 0.39
G19C C37U | 0.16
A18U G55A | 0.29
A18U G55U | 0.41
A18U G22U | 0.24
A18G C37A | 0.32
A18U G61A | 0.3
A18U G61C | 0.14
A18U G61U | 0.28
G19A U69A | 0.14
G19A U69C | 0.13
G19A A77G | 0.3
A18U U48A | 0.19
A18U U48C | 0.28
A18G G22U | 0.22
A18G G22A | 0.24
A18G G22C | 0.24

Variant | self-cleavage
A18U U31A | 0.3
A18U U31C | 0.26
A18U U31G | 0.17
A18G C39G | 0.21
A18G C39A | 0.47
A18G C39U | 0.52
A18U G63A | 0.48
A18U G63C | 0.37
A18U G63U | 0.57
A18G U66A | 0.31
A18G U66C | 0.29
A18U G70U | 0.21
A18G G52A | 0.82
A18G G52C | 0.94
A18G G52U | 0.83
G19A A21U | 0.1
A18U U67A | 0.21
A18U U67C | 0.26
A18U U67G | 0.19
A18U U25G | 0.08
A18U U25A | 0.19
A18U U25C | 0.26
A18U U72C | 0.42
A18U U72A | 0.19

Variant | self-cleavage
A18U U72G | 0.5
A18U U41A | 0.22
A18U U41C | 0.38
A18G G53A | 0.9
A18G G53U | 0.56
A18U G42A | 0.36
A18U G42C | 0.18
A18U G24A | 0.36
G19A A45G | 0.25
G19A A45U | 0.07
A18G C34G | 0.08
A18G C34U | 0.15
A18G C29A | 0.26
A18G C29U | 0.42
A18U G33A | 0.3
G19A A75G | 0.09
A18U A20G | 0.34
A18U A20U | 0.25
A18G U69G | 0.49
A18G U69A | 0.48
A18G U69C | 1.18
A18U A64G | 0.31
A18U A64U | 0.28
A18U C59G | 0.15

Variant | self-cleavage
A18U C59A | 0.17
A18U C59U | 0.23
A18U A35G | 0.7
A18U A35C | 0.34
A18U A35U | 0.22
G19C C40U | 0.29
A18G U48C | 0.31
A18G U48A | 0.16
G19U A20U | 0.42
G19U A20G | 0.29
A18U C29A | 0.19
A18U C29U | 0.17
G19A U78A | 0.47
A18G U80C | 0.86
A18G U80A | 0.9
G19C A20U | 0.4
A18U G73A | 0.61
A18U G73C | 0.49
A18G U54G | 0.36
A18G U54A | 0.8
A18G U54C | 0.57
A18G G36C | 0.13
A18G G36A | 0.31
A18U U78C | 0.38

Variant | self-cleavage
A18U U78A | 0.36
A18U C79U | 0.26
A18U C79A | 0.75
G19C U26C | 0.27
G19A U72C | 0.18
G19C A56U | 0.19
G19C A56G | 0.07
A18G C40A | 0.14
A18G C40U | 0.44
A18G C44U | 0.2
A18G C44G | 0.16
A18G C44A | 0.28
G19A A20U | 0.11
G19A G42A | 0.15
A18G C38U | 0.73
A18U G36U | 0.19
G19A A57G | 0.26
A18G C71A | 0.29
A18G C71U | 0.28
A18G C71G | 0.27
A18G G55A | 0.47
A18G G55U | 0.7
G19U | 0.27
G19C | 0.29

Variant | self-cleavage
G19A | 0.29
A18U C32U | 0.08
A18U C32G | 0.17
A18U C32A | 0.17
A18U A47G | 0.37
A18U A47U | 0.3
A18G C50U | 0.63
G19A C29G | 0.24
A18G G33A | 0.23
A18G G33U | 0.19
A18G G73A | 1.24
A18G G19U | 0.32
A18G G19C | 0.2
G19A U66A | 0.13
G19A U66G | 0.51
G19A U66C | 0.44
G19A A56G | 0.2
G19A A56U | 0.12
A18G U41C | 0.68
A18G U41G | 0.42
A18G U41A | 0.26
A18U C40A | 0.13
A18U C40U | 0.45
A18U C40G | 0.18

Variant | self-cleavage
A18U | 0.4
A18G G30A | 0.2
A18G U49A | 0.32
A18G U49C | 0.29
G19C U60A | 0.16
G19C U60C | 0.15
A18G U74A | 0.95
A18G U74G | 1.21
A18G U74C | 1.1
G19A C40U | 0.21
G19A C40G | 0.1
G19A C59U | 0.17
A18U A21U | 0.28
A18U A21C | 0.2
A18U A21G | 0.25
A18U C44G | 0.24
A18U C44U | 0.2
A18U C44A | 0.15
G19C A57U | 0.13
G19C A57G | 0.23
G19C U25C | 0.06
A18G U67C | 0.26
A18G U67G | 0.28
A18G U67A | 0.31

Variant | self-cleavage
A18U U76A | 0.36
A18U U76C | 0.39
A18U U76G | 0.3
G19A G52A | 0.16
A18U A57U | 0.33
A18U A57G | 0.37
G19A C62U | 0.36
G19U A21G | 0.2
A18G C81A | 0.55
G19A U26C | 0.31
A18G U31A | 0.41
A18G U31C | 0.3
G19A A64G | 0.21
G19A C39A | 0.11
G19A C39U | 0.33
A18G G42U | 0.27
G19A U48C | 0.16
A18U U60C | 0.22
A18U U60A | 0.3
A18U U80C | 0.52
A18U U80G | 0.51
A18U U80A | 0.53
G19A C32A | 0.08
G19A U49C | 0.1

Variant | self-cleavage
A18G C68U | 0.52
A18G C68A | 0.21
A18U C34U | 0.25
A18U C34A | 0.23
G19C U41A | 0.44
G19C U41C | 0.18
G19C U41G | 0.32
A18G G61A | 0.3
A18U C38U | 0.31
A18G G63U | 1.02
A18G G63C | 0.55
A18G G63A | 0.51
A18U C39U | 0.3
A18U C39A | 0.24
A18U A45U | 0.25
A18U A45C | 0.16
A18U A45G | 0.32
G19C G30C | 0.25
G19C G53A | 0.09
G19C U67C | 0.21
A18U U66A | 0.29
A18U U66C | 0.29
A18G U78C | 0.82
A18G U78A | 0.82

Variant | self-cleavage
A18G U78G | 0.53
A18U U54C | 0.32
A18U U54G | 0.34
A18U U54A | 0.54
G19A U80C | 0.27
G19A U80A | 0.58
A18U A65G | 0.28
A18U A65U | 0.2
A18U U69C | 0.47
A18U U69G | 1.14
A18U U69A | 1.19
G19A U41C | 0.22
A18G C62A | 0.23
A18G C62U | 0.32
A18G C62G | 0.13
A18U G30A | 0.15
A18U G30U | 0.17
G19C G24A | 0.11
A18U U58G | 0.03
A18U U58A | 0.19
A18U U58C | 0.32
A18G U76A | 0.73
A18G U76C | 0.58
G19A A65G | 0.51

Variant | self-cleavage
G19A U31A | 0.44
A18G C79U | 0.9
A18G C79G | 0.73
G19C U49A | 0.36
A18G U51G | 0.77
A18G U51C | 0.48
A18G U51A | 0.74
A18U U51A | 0.41
A18U U51C | 0.42
G19C A77G | 0.24
A18U G19A | 0.15
A18U G19U | 0.21
A18U G19C | 0.23
A18U G53A | 0.56
A18U G53U | 0.45
A18G C32G | 0.1
A18G C32U | 0.2
A18G C32A | 0.15
G19C G52U | 0.35
A18U U26G | 0.07
A18U U26A | 0.31
A18U U26C | 0.26
